According to publication PMC9482650, “Quantitative fragmentomics allow affinity mapping of interactomes” (Nature Communications, 2022):

Key:
Assay in all cases: holdup assay
Design in all cases: key: below the threshold = too weak to quantify, mostly under pKd 3.1 to 4
PDZD2_2, O15018 = molecular target: T1, PDZD2_2, O15018
T1 sequence (O15018 329-429, limits assumed, looked up): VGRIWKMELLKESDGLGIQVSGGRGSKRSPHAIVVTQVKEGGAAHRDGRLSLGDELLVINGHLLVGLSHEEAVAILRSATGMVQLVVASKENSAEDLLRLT

MAGI3_2, Q5TCQ9 = molecular target: MAGI3_2, Q5TCQ9
FRMPD3, Q5JV73 = molecular target: FRMPD3, Q5JV73
APBA3_1, O96018 = molecular target: T2, APBA3_1, O96018
T2 sequence (O96018 389-490, limits assumed, looked up): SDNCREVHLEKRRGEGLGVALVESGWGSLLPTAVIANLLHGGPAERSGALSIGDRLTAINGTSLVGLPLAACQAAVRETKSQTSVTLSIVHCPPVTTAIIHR

SCRIB_1, Q14160 = molecular target: SCRIB_1, Q14160
GRIP1_4, Q9Y3R0 = molecular target: T3, GRIP1_4, Q9Y3R0
T3 sequence (Q9Y3R0 467-571, limits assumed, looked up): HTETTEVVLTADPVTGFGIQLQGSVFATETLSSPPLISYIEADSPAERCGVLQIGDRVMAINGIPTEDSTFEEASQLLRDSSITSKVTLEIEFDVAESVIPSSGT

PARD3_3, Q8TEW0 = molecular target: PARD3_3, Q8TEW0
SYNJ2BP, P57105 = molecular target: T4, SYNJ2BP, P57105
T4 sequence (P57105 8-110, limits assumed, looked up): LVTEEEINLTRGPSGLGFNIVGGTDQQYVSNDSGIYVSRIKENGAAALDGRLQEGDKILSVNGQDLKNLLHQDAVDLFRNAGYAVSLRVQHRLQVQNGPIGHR

LNX1_2, Q8TBB1 = molecular target: LNX1_2, Q8TBB1
DLG3_1, Q92796 = molecular target: T5, DLG3_1, Q92796
T5 sequence (Q92796 125-227, limits assumed, looked up): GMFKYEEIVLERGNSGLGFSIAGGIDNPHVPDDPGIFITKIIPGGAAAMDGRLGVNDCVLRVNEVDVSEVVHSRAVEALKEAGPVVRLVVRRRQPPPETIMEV

MAST2, Q6P0Q8 = molecular target: MAST2, Q6P0Q8
DFNB31_1, Q9P202 = molecular target: T6, DFNB31_1, Q9P202
T6 sequence (Q9P202 135-233, limits assumed, looked up): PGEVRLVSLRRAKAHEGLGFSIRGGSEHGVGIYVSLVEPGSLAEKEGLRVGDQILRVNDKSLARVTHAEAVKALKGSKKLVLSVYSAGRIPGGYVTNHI

IL16_1, Q14005 = molecular target: IL16_1, Q14005
ARHGEF11, O15085 = molecular target: T7, ARHGEF11, O15085
T7 sequence (O15085 42-136, limits assumed, looked up): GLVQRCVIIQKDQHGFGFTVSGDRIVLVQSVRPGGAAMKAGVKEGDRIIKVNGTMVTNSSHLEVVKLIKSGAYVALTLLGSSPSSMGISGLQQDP

MAGI1_1, Q96QZ7 = molecular target: MAGI1_1, Q96QZ7
LNX2_3, Q8N448 = molecular target: T8, LNX2_3, Q8N448
T8 sequence (Q8N448 463-564, limits assumed, looked up): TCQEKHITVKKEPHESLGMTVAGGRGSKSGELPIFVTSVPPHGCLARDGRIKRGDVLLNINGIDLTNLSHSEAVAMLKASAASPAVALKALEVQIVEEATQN

SNX27, Q96L92 = molecular target: SNX27, Q96L92
GRID2IP_2, A4D2P6 = molecular target: GRID2IP_2, A4D2P6
GRIP2_6, Q9C0E4 = molecular target: GRIP2_6, Q9C0E4
LRRC7, Q96NW7 = molecular target: T9, LRRC7, Q96NW7
T9 sequence (Q96NW7 1440-1537, limits assumed, looked up): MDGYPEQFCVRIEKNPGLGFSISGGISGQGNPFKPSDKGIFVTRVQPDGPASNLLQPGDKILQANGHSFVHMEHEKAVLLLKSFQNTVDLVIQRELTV

TJP2_1, Q9UDY2 = molecular target: TJP2_1, Q9UDY2
DLG4_2, P78352 = molecular target: DLG4_2, P78352
NHERF4_4, Q86UT5 = molecular target: NHERF4_4, Q86UT5
IL16_4, Q14005 = molecular target: IL16_4, Q14005
PTPN3, P26045 = molecular target: PTPN3, P26045
GRIP2_4, Q9C0E4 = molecular target: GRIP2_4, Q9C0E4
HTRA3, P83110 = molecular target: T10, HTRA3, P83110
T10 sequence (P83110 354-453, limits assumed, looked up): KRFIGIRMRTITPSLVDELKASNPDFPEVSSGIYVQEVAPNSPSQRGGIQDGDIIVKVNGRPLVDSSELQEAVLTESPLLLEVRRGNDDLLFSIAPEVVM

[1] = plain residues with an end cap or a label only (N-terminal biotin on a linker: ttds)
[2] = plain residues with an end cap or a label only (N-terminal biotin on a linker: ado-ado)
[3] = plain residues with an end cap or a label only (N-terminal biotin on a linker: ahx)

PARD3_3, Q8TEW0, sequence (Q8TEW0 582-685): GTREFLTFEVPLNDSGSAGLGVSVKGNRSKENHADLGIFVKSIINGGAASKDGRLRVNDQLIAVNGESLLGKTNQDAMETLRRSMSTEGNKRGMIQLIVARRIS
MAST2, Q6P0Q8, sequence (Q6P0Q8 1099-1202): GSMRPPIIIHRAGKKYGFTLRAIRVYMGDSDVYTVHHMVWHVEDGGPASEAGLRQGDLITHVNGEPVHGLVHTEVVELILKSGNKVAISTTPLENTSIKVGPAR
GRIP2_6, Q9C0E4, sequence (Q9C0E4 648-740): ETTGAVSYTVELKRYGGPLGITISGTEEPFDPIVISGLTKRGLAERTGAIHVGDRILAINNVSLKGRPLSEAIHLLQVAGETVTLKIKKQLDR
LNX1_2, Q8TBB1, sequence (Q8TBB1 371-470): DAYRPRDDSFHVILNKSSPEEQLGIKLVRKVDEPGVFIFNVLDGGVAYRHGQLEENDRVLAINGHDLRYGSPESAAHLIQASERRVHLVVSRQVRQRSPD
DLG4_2, P78352, sequence (P78352 155-259): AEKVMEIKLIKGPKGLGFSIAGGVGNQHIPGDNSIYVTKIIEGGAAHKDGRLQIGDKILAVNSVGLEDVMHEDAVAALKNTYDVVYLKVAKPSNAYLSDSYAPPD
GRID2IP_2, A4D2P6, sequence (A4D2P6 272-370): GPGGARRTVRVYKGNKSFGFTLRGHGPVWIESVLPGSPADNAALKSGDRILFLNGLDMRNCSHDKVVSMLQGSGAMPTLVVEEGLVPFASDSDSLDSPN
PTPN3, P26045, sequence (P26045 505-587): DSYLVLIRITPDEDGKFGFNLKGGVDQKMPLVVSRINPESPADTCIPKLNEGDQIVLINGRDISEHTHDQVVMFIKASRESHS
MAGI1_1, Q96QZ7, sequence (Q96QZ7 1-106): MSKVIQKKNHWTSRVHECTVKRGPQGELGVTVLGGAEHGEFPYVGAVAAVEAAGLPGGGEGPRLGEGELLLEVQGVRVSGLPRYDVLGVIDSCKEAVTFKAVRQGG
IL16_1, Q14005, sequence (Q14005 210-306): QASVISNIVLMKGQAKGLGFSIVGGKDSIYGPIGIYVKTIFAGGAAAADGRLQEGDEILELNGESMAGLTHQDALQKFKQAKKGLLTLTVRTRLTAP
GRIP2_4, Q9C0E4, sequence (Q9C0E4 446-548): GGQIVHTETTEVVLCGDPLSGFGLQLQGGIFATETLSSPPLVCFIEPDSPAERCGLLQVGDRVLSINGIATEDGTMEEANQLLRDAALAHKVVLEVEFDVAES
NHERF4_4, Q86UT5, sequence (Q86UT5 464-550): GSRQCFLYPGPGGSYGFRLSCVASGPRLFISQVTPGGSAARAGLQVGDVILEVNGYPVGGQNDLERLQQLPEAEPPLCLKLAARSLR
FRMPD3, Q5JV73, sequence (Q5JV73 12-100): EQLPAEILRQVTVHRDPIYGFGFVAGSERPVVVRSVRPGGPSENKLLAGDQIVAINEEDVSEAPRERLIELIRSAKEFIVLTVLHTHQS
MAGI3_2, Q5TCQ9, sequence (Q5TCQ9 398-503): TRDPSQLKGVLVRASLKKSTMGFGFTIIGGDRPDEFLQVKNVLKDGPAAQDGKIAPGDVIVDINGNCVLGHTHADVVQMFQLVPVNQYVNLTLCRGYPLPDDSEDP
IL16_4, Q14005, sequence (Q14005 1229-1329): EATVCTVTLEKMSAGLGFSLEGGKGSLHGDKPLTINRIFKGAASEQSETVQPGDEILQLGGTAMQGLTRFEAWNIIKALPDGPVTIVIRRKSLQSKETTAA
SCRIB_1, Q14160, sequence (Q14160 718-814): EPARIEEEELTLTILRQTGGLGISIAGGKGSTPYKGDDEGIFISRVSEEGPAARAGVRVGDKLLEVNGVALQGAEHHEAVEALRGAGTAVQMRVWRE
TJP2_1, Q9UDY2, sequence (Q9UDY2 24-128): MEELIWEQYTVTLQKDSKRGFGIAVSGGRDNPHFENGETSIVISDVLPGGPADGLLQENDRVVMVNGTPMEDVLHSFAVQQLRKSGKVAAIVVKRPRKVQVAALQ

With SEKHFRETEV [HTLV1-TAX1, P03409] the pKd (PDZD2_2, O15018; [1]) was 4.44, the pKd (MAGI3_2, Q5TCQ9; [1]) was 4.99 and the pKd (FRMPD3, Q5JV73; [1]) was “below the threshold”. The pKd (APBA3_1, O96018; [1]) was “below the threshold”, the pKd (SCRIB_1, Q14160; [1]) was 5.63 and the pKd (GRIP1_4, Q9Y3R0; [1]) was “below the threshold”. It also gave a pKd (PARD3_3, Q8TEW0; [1]) of 3.71, a pKd (SYNJ2BP, P57105; [1]) of 6.04 and a pKd (LNX1_2, Q8TBB1; [1]) of 3.71. It also gave a pKd (DLG3_1, Q92796; [1]) of 4.58, a pKd (MAST2, Q6P0Q8; [1]) of 5.42 and a pKd (DFNB31_1, Q9P202; [1]) of 3.96. The pKd (IL16_1, Q14005; [1]) was 4.44, the pKd (ARHGEF11, O15085; [1]) was 4.22 and the pKd (MAGI1_1, Q96QZ7; [1]) was “below the threshold”. For the same binder, the pKd (LNX2_3, Q8N448; [1]) was “below the threshold”, the pKd (SNX27, Q96L92; [1]) was 5.72 and the pKd (GRID2IP_2, A4D2P6; [1]) was 3.84. The pKd (GRIP2_6, Q9C0E4; [1]) was “below the threshold”, the pKd (LRRC7, Q96NW7; [1]) was 4.69 and the pKd (TJP2_1, Q9UDY2; [1]) was “below the threshold”. The pKd (DLG4_2, P78352; [1]) was 5.51, the pKd (NHERF4_4, Q86UT5; [1]) was “below the threshold” and the pKd (IL16_4, Q14005; [1]) was “below the threshold”. For the same binder, the pKd (PTPN3, P26045; [1]) was 5.26, the pKd (GRIP2_4, Q9C0E4; [1]) was “below the threshold” and the pKd (HTRA3, P83110; [1]) was “below the threshold”.

With SVVSERISSV [HTR2C, P28335] the pKd (PDZD2_2, O15018; [2]) was 5.56, the pKd (MAGI3_2, Q5TCQ9; [2]) was 4.46 and the pKd (FRMPD3, Q5JV73; [2]) was “below the threshold”. For the same binder, the pKd (APBA3_1, O96018; [2]) was “below the threshold”, the pKd (SCRIB_1, Q14160; [2]) was “below the threshold” and the pKd (GRIP1_4, Q9Y3R0; [2]) was “below the threshold”. The pKd (PARD3_3, Q8TEW0; [2]) was “below the threshold”, the pKd (SYNJ2BP, P57105; [2]) was 4.46 and the pKd (LNX1_2, Q8TBB1; [2]) was “below the threshold”. For the same binder, the pKd (DLG3_1, Q92796; [2]) was “below the threshold”, the pKd (MAST2, Q6P0Q8; [2]) was 4.78 and the pKd (DFNB31_1, Q9P202; [2]) was “below the threshold”. For the same binder, the pKd (IL16_1, Q14005; [2]) was 4.56, the pKd (ARHGEF11, O15085; [2]) was 3.84 and the pKd (MAGI1_1, Q96QZ7; [2]) was “below the threshold”. For the same binder, the pKd (LNX2_3, Q8N448; [2]) was “below the threshold”, the pKd (SNX27, Q96L92; [2]) was 5.06 and the pKd (GRID2IP_2, A4D2P6; [2]) was 4.44. For the same binder, the pKd (GRIP2_6, Q9C0E4; [2]) was “below the threshold”, the pKd (LRRC7, Q96NW7; [2]) was “below the threshold” and the pKd (TJP2_1, Q9UDY2; [2]) was “below the threshold”. The pKd (DLG4_2, P78352; [2]) was 4.64, the pKd (NHERF4_4, Q86UT5; [2]) was “below the threshold” and the pKd (IL16_4, Q14005; [2]) was “below the threshold”. For the same binder, the pKd (PTPN3, P26045; [2]) was 4.8, the pKd (GRIP2_4, Q9C0E4; [2]) was “below the threshold” and the pKd (HTRA3, P83110; [2]) was “below the threshold”.

In the case of HIVEALETDV [PBK, Q96KB5], the pKd (PDZD2_2, O15018; [1]) is reported as 4.84, the pKd (MAGI3_2, Q5TCQ9; [1]) is reported as 4.29 and the pKd (FRMPD3, Q5JV73; [1]) is reported as “below the threshold”. The pKd (APBA3_1, O96018; [1]) was “below the threshold”, the pKd (SCRIB_1, Q14160; [1]) was 5.32 and the pKd (GRIP1_4, Q9Y3R0; [1]) was “below the threshold”. The pKd (PARD3_3, Q8TEW0; [1]) was 3.76, the pKd (SYNJ2BP, P57105; [1]) was 4.35 and the pKd (LNX1_2, Q8TBB1; [1]) was “below the threshold”. It also gave a pKd (DLG3_1, Q92796; [1]) of 4.67, a pKd (MAST2, Q6P0Q8; [1]) of 5.71 and a pKd (DFNB31_1, Q9P202; [1]) of 4.03. For the same binder, the pKd (IL16_1, Q14005; [1]) was 3.97, the pKd (ARHGEF11, O15085; [1]) was 4.31 and the pKd (MAGI1_1, Q96QZ7; [1]) was “below the threshold”. The pKd (LNX2_3, Q8N448; [1]) was “below the threshold”, the pKd (SNX27, Q96L92; [1]) was 4.83 and the pKd (GRID2IP_2, A4D2P6; [1]) was 3.96. For the same binder, the pKd (GRIP2_6, Q9C0E4; [1]) was “below the threshold”, the pKd (LRRC7, Q96NW7; [1]) was 3.91 and the pKd (TJP2_1, Q9UDY2; [1]) was “below the threshold”. For the same binder, the pKd (DLG4_2, P78352; [1]) was 5.55, the pKd (NHERF4_4, Q86UT5; [1]) was “below the threshold” and the pKd (IL16_4, Q14005; [1]) was “below the threshold”. For the same binder, the pKd (PTPN3, P26045; [1]) was 5.11, the pKd (GRIP2_4, Q9C0E4; [1]) was “below the threshold” and the pKd (HTRA3, P83110; [1]) was “below the threshold”.

With EKLSSIESDV [GRIN2B, Q13224] the pKd (PDZD2_2, O15018; [3]) was 4.82, the pKd (MAGI3_2, Q5TCQ9; [3]) was 3.54 and the pKd (FRMPD3, Q5JV73; [3]) was “below the threshold”. The pKd (APBA3_1, O96018; [3]) was “below the threshold”, the pKd (SCRIB_1, Q14160; [3]) was 3.71 and the pKd (GRIP1_4, Q9Y3R0; [3]) was “below the threshold”. The pKd (PARD3_3, Q8TEW0; [3]) was “below the threshold”, the pKd (SYNJ2BP, P57105; [3]) was 4.4 and the pKd (LNX1_2, Q8TBB1; [3]) was “below the threshold”. For the same binder, the pKd (DLG3_1, Q92796; [3]) was 4.15, the pKd (MAST2, Q6P0Q8; [3]) was 4.49 and the pKd (DFNB31_1, Q9P202; [3]) was “below the threshold”. The pKd (IL16_1, Q14005; [3]) was 4.02, the pKd (ARHGEF11, O15085; [3]) was 3.56 and the pKd (MAGI1_1, Q96QZ7; [3]) was “below the threshold”. For the same binder, the pKd (LNX2_3, Q8N448; [3]) was “below the threshold”, the pKd (SNX27, Q96L92; [3]) was 3.87 and the pKd (GRID2IP_2, A4D2P6; [3]) was “below the threshold”. For the same binder, the pKd (GRIP2_6, Q9C0E4; [3]) was “below the threshold”, the pKd (LRRC7, Q96NW7; [3]) was 3.63 and the pKd (TJP2_1, Q9UDY2; [3]) was “below the threshold”. The pKd (DLG4_2, P78352; [3]) was 4.86, the pKd (NHERF4_4, Q86UT5; [3]) was “below the threshold” and the pKd (IL16_4, Q14005; [3]) was “below the threshold”. The pKd (PTPN3, P26045; [3]) was 4.35, the pKd (GRIP2_4, Q9C0E4; [3]) was “below the threshold” and the pKd (HTRA3, P83110; [3]) was “below the threshold”.
